What all share (assay): cell-based or functional assay
Assay [1] has as its target full-length cynomolgus GLP1R on HEK293/CRE-Luc/mfGLP1R cells (cynomolgus) (UniProt F8V479).
The target of assay [2] is full-length human glucagon-like peptide 2 receptor on HEK293/CRE-Luc/hGLP2R cells (human) (UniProt O95838).
The target of assay [3] is full-length human glucagon receptor on HEK293/CRE-Luc/hGCGR cells (human) (UniProt P47871).
Assay [4] addresses full-length human gastric inhibitory polypeptide receptor on HEK293/CRE-Luc/hGIPR cells (human) (UniProt P48546).
Assay [5] addresses full-length human GLP1R on HEK293/CRE-Luc/hGLP1R cells (human) (UniProt P43220).
Assay [6] deals with full-length human glucagon-like peptide 2 receptor on HEK293/CRE-Luc/hGLP2R cells (human) (UniProt O95838). This is another data set of the same source.
Assay [7] concerns the target full-length human gastric inhibitory polypeptide receptor on HEK293/CRE-Luc/hGIPR cells (human) (UniProt P48546). The source holds these as a separate data set.
The target in assay [8] is full-length cynomolgus GLP1R on HEK293/CRE-Luc/mfGLP1R cells (cynomolgus) (UniProt F8V479). The source holds these as a separate data set.
Target sequence in this assay (F8V479 entry or part of it): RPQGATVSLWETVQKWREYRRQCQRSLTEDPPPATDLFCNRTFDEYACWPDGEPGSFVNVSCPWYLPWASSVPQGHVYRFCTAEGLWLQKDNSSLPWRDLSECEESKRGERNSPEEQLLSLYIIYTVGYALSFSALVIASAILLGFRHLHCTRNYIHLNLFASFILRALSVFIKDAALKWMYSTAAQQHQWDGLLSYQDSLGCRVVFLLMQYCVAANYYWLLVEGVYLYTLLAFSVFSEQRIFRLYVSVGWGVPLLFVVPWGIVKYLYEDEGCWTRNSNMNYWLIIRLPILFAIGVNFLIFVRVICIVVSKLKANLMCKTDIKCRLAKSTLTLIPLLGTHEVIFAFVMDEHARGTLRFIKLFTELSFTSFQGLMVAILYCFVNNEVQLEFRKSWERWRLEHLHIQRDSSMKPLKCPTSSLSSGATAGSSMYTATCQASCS
For assay [9], the target named is full-length human glucagon receptor on HEK293/CRE-Luc/hGCGR cells (human) (UniProt P47871). The source holds these as a separate data set.
Assay [10] deals with full-length human GLP1R on HEK293/CRE-Luc/hGLP1R cells (human) (UniProt P43220). This is another data set of the same source.
Chain of full-length human GLP1R on HEK293/CRE-Luc/hGLP1R cells (human) (P43220 24-463): as the sequence (F8V479 entry or part of it) above, with N112S, S120F, G202S, V205L, F237L, R241W, V249I counted along it

Like-named read-outs stand apart in the source and are kept apart here.

Chain of full-length human glucagon-like peptide 2 receptor on HEK293/CRE-Luc/hGLP2R cells (human) (O95838 whole entry): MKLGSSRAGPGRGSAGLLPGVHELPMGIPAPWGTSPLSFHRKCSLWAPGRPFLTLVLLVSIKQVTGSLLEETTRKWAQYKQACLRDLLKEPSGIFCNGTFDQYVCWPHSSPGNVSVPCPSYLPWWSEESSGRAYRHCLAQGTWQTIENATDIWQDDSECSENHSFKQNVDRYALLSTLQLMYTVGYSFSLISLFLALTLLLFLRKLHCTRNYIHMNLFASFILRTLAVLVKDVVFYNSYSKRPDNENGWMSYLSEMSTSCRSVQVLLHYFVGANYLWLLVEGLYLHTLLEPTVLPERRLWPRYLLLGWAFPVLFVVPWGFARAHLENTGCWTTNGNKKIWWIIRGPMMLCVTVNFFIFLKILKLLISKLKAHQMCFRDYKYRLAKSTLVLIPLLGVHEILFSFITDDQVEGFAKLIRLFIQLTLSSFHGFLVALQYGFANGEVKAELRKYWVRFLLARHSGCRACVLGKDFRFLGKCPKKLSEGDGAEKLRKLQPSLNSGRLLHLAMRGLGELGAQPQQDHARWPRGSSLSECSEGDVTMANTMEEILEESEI
Chain of human GLP2 (P01275 146-178 limits assumed): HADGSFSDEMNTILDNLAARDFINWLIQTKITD
Chain of full-length human gastric inhibitory polypeptide receptor on HEK293/CRE-Luc/hGIPR cells (human) (P48546 22-466): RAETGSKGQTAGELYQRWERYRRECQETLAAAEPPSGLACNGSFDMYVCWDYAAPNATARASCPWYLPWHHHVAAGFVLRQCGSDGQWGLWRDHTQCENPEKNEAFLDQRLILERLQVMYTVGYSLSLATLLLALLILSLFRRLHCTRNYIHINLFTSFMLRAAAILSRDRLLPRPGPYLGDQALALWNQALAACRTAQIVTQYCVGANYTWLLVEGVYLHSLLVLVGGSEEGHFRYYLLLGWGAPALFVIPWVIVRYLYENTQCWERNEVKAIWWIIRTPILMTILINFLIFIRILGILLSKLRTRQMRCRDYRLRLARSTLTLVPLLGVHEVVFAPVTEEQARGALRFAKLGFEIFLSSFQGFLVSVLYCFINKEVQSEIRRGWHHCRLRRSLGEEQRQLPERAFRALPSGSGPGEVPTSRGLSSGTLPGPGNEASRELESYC
Chain of full-length human glucagon receptor on HEK293/CRE-Luc/hGCGR cells (human) (P47871 26-477): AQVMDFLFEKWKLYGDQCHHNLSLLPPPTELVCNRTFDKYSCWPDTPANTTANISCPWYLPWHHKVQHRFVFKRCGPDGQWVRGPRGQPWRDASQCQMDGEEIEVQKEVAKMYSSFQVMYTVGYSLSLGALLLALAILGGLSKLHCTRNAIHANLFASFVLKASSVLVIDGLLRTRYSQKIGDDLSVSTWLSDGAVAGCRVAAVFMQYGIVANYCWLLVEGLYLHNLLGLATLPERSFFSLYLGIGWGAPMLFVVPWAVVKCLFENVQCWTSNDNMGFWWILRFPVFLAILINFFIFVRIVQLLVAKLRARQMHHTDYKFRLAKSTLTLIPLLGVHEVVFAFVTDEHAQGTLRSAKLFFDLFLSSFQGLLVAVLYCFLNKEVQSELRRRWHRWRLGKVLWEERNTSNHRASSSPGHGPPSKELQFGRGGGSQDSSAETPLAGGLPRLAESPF
Chain of human GCG (glucagon) (P01275 53-81 limits assumed): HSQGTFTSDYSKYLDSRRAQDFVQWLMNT

Take “Isotype control Ab (unconjugated; Q tag none or not stated) (antibody)”: the CRE-luc EC50 in assay [1], in assay [2], in [3], in assay [4] and in assay [5] was greater than 300 nM each time.
For “human GCG (glucagon) (from UniProt P01275 53-81) (ligand)”, the CRE-luc EC50 in assay [2] is greater than 30 nM; in assay [4], greater than 30 nM; in assay [6] it was greater than 200 nM; in assay [7] it was greater than 200 nM.
For “human GIP (from UniProt P09681 52-93) (ligand)”, the CRE-luc EC50 was greater than 30 nM in assay [2]; greater than 30 nM in assay [3]; greater than 30 nM in [5]; greater than 200 nM in assay [8]; greater than 200 nM in [6]; greater than 200 nM in assay [9]. This substance also registered a CRE-luc EC50 in assay [10] greater than 200 nM.
In the case of “human GLP1 (reference ligand) (from UniProt P01275 98-128)”, the CRE-luc EC50 in [2] was greater than 30 nM; in assay [3] it was greater than 30 nM; in assay [4], greater than 30 nM; in assay [6], greater than 200 nM; in assay [9], greater than 200 nM; in [7], greater than 200 nM.
“human GLP2 (from UniProt P01275 146-178) (ligand)”: the CRE-luc EC50 in assay [3] is greater than 30 nM; in assay [4], greater than 30 nM; in assay [5] it was greater than 30 nM; in assay [8] it was greater than 200 nM; in assay [9], greater than 200 nM; in assay [7], greater than 200 nM. Moreover, in [10], the CRE-luc EC50 is greater than 200 nM.

These data come from patent US20230330254A1, “ANTI-GLP1R ANTIBODY-TETHERED DRUG CONJUGATES COMPRISING GLP1 PEPTIDOMIMETICS AND USES THEREOF” (Regeneron Pharmaceuticals, Inc., priority 2022, published 2023).
